What was measured:
COA7 = COA7 (Homo sapiens, UniProt Q96BR5); assay: biochemical
AUC = target: the molecule itself; assay: AUC

Kd (COA7) [nM] | Molecule | stoichiometry N (AUC)
1400 ± 280 | C=CC1=C(C)C2=Cc3c(C=C)c(C)c4[n]3[Fe]([Cl])[n]3c(c(C)c(CCC(=O)O)c3=CC3=NC(=C4)C(C)=C3CCC(=O)O)=CC1=N2 [hemin] | 
 | Recombinant human COA7 (natural protein) MAGMVDFQDEEQVKSFLENMEVECNYHCYHEKDPDGCYRLVDYLEGIRKNFDEAAKVLKFNCEENQHSDSCYKLGAYYVTGKGGLTQDLKAAARCFLMACEKPGKKSIAACHNVGLLAHDGQVNEDGQPDLGKARDYYTRACDGGYTSSCFNLSAMFLQGAPGFPKDMDLACKYSMKACDLGHIWACANASRMYKLGDGVDKDEAKAEVLKNRAQQLHKEQQKGVQPLTFG | 2
 | Recombinant Y137C COA7 (^Y137CCOA7) (natural protein, human) MAGMVDFQDEEQVKSFLENMEVECNYHCYHEKDPDGCYRLVDYLEGIRKNFDEAAKVLKFNCEENQHSDSCYKLGAYYVTGKGGLTQDLKAAARCFLMACEKPGKKSIAACHNVGLLAHDGQVNEDGQPDLGKARDCYTRACDGGYTSSCFNLSAMFLQGAPGFPKDMDLACKYSMKACDLGHIWACANASRMYKLGDGVDKDEAKAEVLKNRAQQLHKEQQKGVQPLTFG | 2
